B1: anti-MAGE-A3 TCR 13-18 (TCR, V domains shown)
V domain 1: QKEVEQDPGPLSVPEGAIVSLNCTYSNSAFQYFMWYRQYSRKGPELLMYTYSSGNKEDGRFTAQVDKSSKYISLFIRDSQPSDSATYLCAMRGAQKLVFGQGTRLTINP
V domain 2: DAMVIQNPRYQVTQFGKPVTLSCSQTLNHNVMYWYQQKSSQAPKLLFHYYDKDFNNEADTPDNFQSRRPNTSFCFLDIRSPGLGDAAMYLCATSWDRGYEQYFGPGTRLTVTE
B2: anti-MAGE-A12 TCR FM8 (TCR, V domains shown)
V domain 1: QTVTQSQPEMSVQEAETVTLSCTYDTSESDYYLFWYKQPPSRQMILVIRQEAYKQQNATENRFSVNFQKAAKSFSLKISDSQLGDAAMYFCAYRSAQGGSEKLVFGKGTKLTVNP
V domain 2: ETGVTQTPRHLVMGMTNKKSLKCEQHLGHNAMYWYKQSAKKPLELMFVYSLEERVENNSVPSRFSPECPNSSHLFLHLHTLQPEDSALYLCASSQTTYYNEQFFGPGTRLTVLE

Tests used:
[1] = biological target: MAGE-A3 168-176 peptide (…) in the context of HLA-A*01 (human); test: cell-based or functional assay
[2] = biological target: MAGE-A12:170-178 in the context of HLA-Cw7 (subtype not stated at that place) (human); test: cell-based or functional assay

Row | Binder | minimum peptide concentration for recognition, relative to TCR A10 [1] | minimum peptide concentration for recognition, relative to TCR 502 [2]
1 | B1 | 10 fold (higher than for TCR A10) | 
2 | B2 |  | 100 fold (higher than for TCR 502)

— patent US20220195008A1 (US Dept. of Health and Human Services, published 2022)
